We go through 47 variants from the Human Domainome abundance scans (Beltran et al. 2025).

The chains are these.
B1: Ubiquitin-protein ligase residues 30 to 86; numbered along this chain, Q05086 (parent)
chain: KHLIERYYHQLTEGCGNEACTNEFCASCPTFLRMDNNAAAIKALELYKINAKLCDPH

± gives the uncertainty stated by the source.

Variants of B1 are the subject of this data set. The data set can be described thus: abundance fitness (aPCA) (normalised: wild type 0, dead -1); higher = more abundant; growth selection in yeast, the domain comes from the species named. Particulars: Homo sapiens.
On to KHLIERYYHQLTEGSGNEACTNEFCASCPTFLRMDNNAAAIKALELYKINAKLCDPH, for which the abundance fitness was -1.07 ± 0.094.
Turning to KHLIERYPHQLTEGCGNEACTNEFCASCPTFLRMDNNAAAIKALELYKINAKLCDPH, the abundance fitness was -0.757 ± 0.11.
As for KHLIERYYHQLTEGCGNEACTNEFCASCPVFLRMDNNAAAIKALELYKINAKLCDPH, the abundance fitness was -0.083 ± 0.066.
To KHLIERYYHQLTEGCGNEACTNEFCASCPAFLRMDNNAAAIKALELYKINAKLCDPH belongs 0.018 ± 0.074; to KHLIERYYHQLTEGCGNEACTNEFCASCPYFLRMDNNAAAIKALELYKINAKLCDPH, -0.216 ± 0.13; to KHLIERYYHQLTEGCGNEACTNEFCASFPTFLRMDNNAAAIKALELYKINAKLCDPH, -0.031 ± 0.075.
As for KHLIERYYHQLTEGCGNEACTNEFCASVPTFLRMDNNAAAIKALELYKINAKLCDPH, the abundance fitness was -0.151 ± 0.054.
Take KHLIERYYHQLTEGCGNEACTNEFCASNPTFLRMDNNAAAIKALELYKINAKLCDPH: the abundance fitness was -0.006 ± 0.085.
Regarding KHLIERYYHQLTEGCGNEACTNEFCASIPTFLRMDNNAAAIKALELYKINAKLCDPH, the abundance fitness is -0.276 ± 0.095.
Next, KHLIERYYHQLTVGCGNEACTNEFCASCPTFLRMDNNAAAIKALELYKINAKLCDPH: -0.071 ± 0.053.
With KHLIERYYHQLTEGCGNEACTNEFCASCPTFLRMDNNAAAIKALELYKINAKLCRPH, the abundance fitness was -0.118 ± 0.066.
To KHLIERYYHQLTEGCGNEACTNEFCASCPTFLRMDNNAAAIKALELYYINAKLCDPH belongs -0.438 ± 0.14.
With KHLIERYYHQCTEGCGNEACTNEFCASCPTFLRMDNNAAAIKALELYKINAKLCDPH, the abundance fitness was -0.153 ± 0.064.
Turning to KHLIERYYHQPTEGCGNEACTNEFCASCPTFLRMDNNAAAIKALELYKINAKLCDPH, the abundance fitness is -0.865 ± 0.13.
KHLIERYYHNLTEGCGNEACTNEFCASCPTFLRMDNNAAAIKALELYKINAKLCDPH: the abundance fitness was -0.127 ± 0.092.
Next, KHLIERYYHKLTEGCGNEACTNEFCASCPTFLRMDNNAAAIKALELYKINAKLCDPH: -0.5 ± 0.086; KHLIERYYHRLTEGCGNEACTNEFCASCPTFLRMDNNAAAIKALELYKINAKLCDPH: -0.07 ± 0.049.
Consider KHLIERYYHDLTEGCGNEACTNEFCASCPTFLRMDNNAAAIKALELYKINAKLCDPH, for which the abundance fitness is -0.485 ± 0.1.
Take KHLIERYYHQLTEGCGNEACTNEFCASCPTFLRMDNCAAAIKALELYKINAKLCDPH: the abundance fitness is -0.17 ± 0.089.
To KHLIERYYHQLTEGCGNEALTNEFCASCPTFLRMDNNAAAIKALELYKINAKLCDPH belongs -1.03 ± 0.091; to KHLIERYYHQLTEGCGNEAITNEFCASCPTFLRMDNNAAAIKALELYKINAKLCDPH, -0.941 ± 0.22; to KHLIERYYHQLTEGCGNEACTNEDCASCPTFLRMDNNAAAIKALELYKINAKLCDPH, -0.026 ± 0.08.
As to KHLIERYYHQLTEGCGNEACTNEGCASCPTFLRMDNNAAAIKALELYKINAKLCDPH, the abundance fitness was -0.057 ± 0.048.
As to KHLIERYYHQLTEGCGNEACTNEFCASCPTFLRMDNNAAAIKALELYKINSKLCDPH, the abundance fitness was -0.012 ± 0.062.
For the variant KHLIERYYHQLTEGCGNEACTNEFCASCPTFLRMDNNAAAIKALELYKINTKLCDPH, the abundance fitness was -0.02 ± 0.079.
Consider KHLIERYYHQLTEGCGNEACTNEFCASCPTFLRMDNNAAAIKALELYKINPKLCDPH, for which the abundance fitness was -0.35 ± 0.1.
KHLIERYYHQLTEGCGNEACTNEFCASCPTFLRMDNNAAAIKALELYKINLKLCDPH: the abundance fitness was -0.463 ± 0.065.
Take KHLIERYYHQLTEGCGNEACTNEFCASCPTFLRMDNNAAAIKALELYKIGAKLCDPH: the abundance fitness is -0.019 ± 0.048.
To KHLIERYYHQLTEGCGFEACTNEFCASCPTFLRMDNNAAAIKALELYKINAKLCDPH belongs -0.091 ± 0.05; to KHLIERYYHQLTEGCGKEACTNEFCASCPTFLRMDNNAAAIKALELYKINAKLCDPH, 0.027 ± 0.071.
With KHLIERYYHQLTEGCGNEACTNEFCASCPTFLRMDNNAAAIKALDLYKINAKLCDPH, the abundance fitness is -0.199 ± 0.14.
To KHLIERKYHQLTEGCGNEACTNEFCASCPTFLRMDNNAAAIKALELYKINAKLCDPH belongs -0.796 ± 0.096; to KHLIERWYHQLTEGCGNEACTNEFCASCPTFLRMDNNAAAIKALELYKINAKLCDPH, -0.184 ± 0.069; to KHLIERSYHQLTEGCGNEACTNEFCASCPTFLRMDNNAAAIKALELYKINAKLCDPH, -0.799 ± 0.066.
On to KHLIERYYHQLTEGCGNEACTNEFCASCPTFLRMDNNAAAIKALELYKINAKLCDKH, for which the abundance fitness was -0.055 ± 0.13.
Take KHLIERYYHQLTEGCGNEACTNEFCASCPTFLRMDNNAAAIKALELYKINAKLCDHH: the abundance fitness was -0.22 ± 0.11.
Next, KHLIERYYHQLTEGCGNEACTNEFCASCPTFLRMDNNAAAIKALELYKINAKLCDRH: 0.023 ± 0.065; KHLIERYYHQLTEGCGNEACTNEFCASCPTFLRMDNNAAAIQALELYKINAKLCDPH: -0.085 ± 0.077; KHLIERYYHQLTEGCGNEACTNEFCASCPTFLRMDNNAAAIKILELYKINAKLCDPH: -0.92 ± 0.19.
With KHLIERYYHQLTEGCGNEACTNEFCASCPTFLRMDNNAAAIKLLELYKINAKLCDPH, the abundance fitness was -0.826 ± 0.071.
Turning to KHLIERYYHQLTEGCGNEACTNEFCASCPTFLRMDNNAAAIKDLELYKINAKLCDPH, the abundance fitness was -0.856 ± 0.12.
KHLIERYYHQLTEGCGNEACTNEFCASCPTFLRMDNNAAAIKMLELYKINAKLCDPH: the abundance fitness is -0.321 ± 0.078.
For KHLIERYYHQLTEGCGNEACTNEFCFSCPTFLRMDNNAAAIKALELYKINAKLCDPH, the abundance fitness was determined as 0.077 ± 0.12.
Consider KHLIERYYHQLTEGCGNEACTNEFCASCPTFLRMDNNAAAIKALELYKINAKLSDPH, for which the abundance fitness was -0.076 ± 0.42.
For KHLIERYYHQLTEGCGNEACTNEFCASCPTFLRMDNNAAAPKALELYKINAKLCDPH, the abundance fitness was -0.069 ± 0.068.
Turning to KHLIERYYHQLTEGCGNEACTNEFCASCPTFLRMDNNAAWIKALELYKINAKLCDPH, the abundance fitness is -0.04 ± 0.074.
In the case of KHLIERYYHQLTEGCGNEACTNEFCASCPTFLRMDNNAAFIKALELYKINAKLCDPH, the abundance fitness is -0.194 ± 0.1.
